Results reported in PMC3939451.

B1: ABCG5: N584Q (protein)
parent chain: MGDLSSLTPGGSMGLQVNRGSQSSLEGAPATAPEPHSLGILHASYSVSHRVRPWWDITSCRQQWTRQILKDVSLYVESGQIMCILGSSGSGKTTLLDAMSGRLGRAGTFLGEVYVNGRALRREQFQDCFSYVLQSDTLLSSLTVRETLHYTALLAIRRGNPGSFQKKVEAVMAELSLSHVADRLIGNYSLGGISTGERRRVSIAAQLLQDPKVMLFDEPTTGLDCMTANQIVVLLVELARRNRIVVLTIHQPRSELFQLFDKIAILSFGELIFCGTPAEMLDFFNDCGYPCPEHSNPFDFYMDLTSVDTQSKEREIETSKRVQMIESAYKKSAICHKTLKNIERMKHLKTLPMVPFKTKDSPGVFSKLGVLLRRVTRNLVRNKLAVITRLLQNLIMGLFLLFFVLRVRSNVLKGAIQDRVGLLYQFVGATPYTGMLNAVNLFPVLRAVSDQESQDGLYQKWQMMLAYALHVLPFSVVATMIFSSVCYWTLGLHPEVARFGYFSAALLAPHLIGEFLTLVLLGIVQNPNIVNSVVALLSIAGVLVGSGFLRNIQEMPIPFKIISYFTFQKYCSEILVVNEFYGLNFTCGSSNVSVTTNPMCAFTQGIQFIEKTCPGATSRFTMNFLILYSFIPALVILGIVVFKIRDHLISR
B2: ABCG5: N591Q (protein)
parent chain: B1 parent chain
B3: ABCG5: N584Q/N591Q (protein)
parent chain: B1 parent chain
B4: ABCG8: N619Q (protein)
parent chain: MAGKAAEERGLPKGATPQDTSGLQDRLFSSESDNSLYFTYSGQPNTLEVRDLNYQVDLASQVPWFEQLAQFKMPWTSPSCQNSCELGIQNLSFKVRSGQMLAIIGSSGCGRASLLDVITGRGHGGKIKSGQIWINGQPSSPQLVRKCVAHVRQHNQLLPNLTVRETLAFIAQMRLPRTFSQAQRDKRVEDVIAELRLRQCADTRVGNMYVRGLSGGERRRVSIGVQLLWNPGILILDEPTSGLDSFTAHNLVKTLSRLAKGNRLVLISLHQPRSDIFRLFDLVLLMTSGTPIYLGAAQHMVQYFTAIGYPCPRYSNPADFYVDLTSIDRRSREQELATREKAQSLAALFLEKVRDLDDFLWKAETKDLDEDTCVESSVTPLDTNCLPSPTKMPGAVQQFTTLIRRQISNDFRDLPTLLIHGAEACLMSMTIGFLYFGHGSIQLSFMDTAALLFMIGALIPFNVILDVISKCYSERAMLYYELEDGLYTTGPYFFAKILGELPEHCAYIIIYGMPTYWLANLRPGLQPFLLHFLLVWLVVFCCRIMALAAAALLPTFHMASFFSNALYNSFYLAGGFMINLSSLWTVPAWISKVSFLRWCFEGLMKIQFSRRTYKMPLGNLTIAVSGDKILSVMELDSYPLYAIYLIVIGLSGGFMVLYYVSLRFIKQKPSQDW

Assays:
[1] = steady-state immunoblot, HEK293; settings: glycan lost
[2] = CHX chase, immunoblot, percent remaining; settings: glycan lost; control: WT-ABCG8

Protein | expression_or_secretion ([1]; control: WT-ABCG5) | expression_or_secretion ([1]; control: WT-ABCG8) | degradation_or_half_life [2]
B1 | decreases | – | –
B2 | decreases | – | –
B3 | decreases | – | –
B4 | – | decreases | decreases, 44.40% vs. 43.95% at 2 hrs; 26.01% vs. 29.36% at 4 hrs
